Results from PMC6293271, “Bactericidal/Permeability-Increasing Protein Is an Enhancer of Bacterial Lipoprotein Recognition” (Frontiers in Immunology, 2018).

Experiments:
[1] = system: HEK293T cells expressing TLR2 and CD14; experiment: Stimulation of HEK293T cells transfected with human TLR2 and CD14, IL-8 ELISA; assay type: cell-based; settings: HEK293T expressing TLR2 and CD14, (R)-Pam3CSK4 ± BPI, 24 h
Method: HEK293T cells were transfected using the calcium phosphate mediated method according to a published protocol ([45]). Transfections were performed using plasmid vectors for human TLR2 and human CD14 (both a kind gift of Carsten Kirschning, University of Duisburg-Essen, Germany) at concentrations of 0.4 and 0.05 μg/ml, respectively. A GFP encoding plasmid (0.4 μg/ml) was used as control. For stimulation, transfected HEK293T cells were cultured at 2 × 10^5 cells/ml in 96-well plates and stimulated with (R)-Pam3CSK4 ± BPI. After 24 h, supernatants were collected and analyzed for secretion of IL-8 by ELISA (DuoSet® ELISA human CXCL8/IL-8, R&D, Minneapolis, MN, USA).

[2] = system: PBMCs; experiment: Stimulation of human PBMCs, cytokine ELISA of supernatants; assay type: cell-based; settings: for TNFα secretion: 18 h
Method: After informed consent, blood was drawn from healthy male volunteers using heparinized blood collection tubes (Li-Heparin-Gel-Monovette, Sarstedt, Nümbrecht, Germany) and diluted in RPMI 1640 (Biochrom, Berlin, Germany) at a ratio of 1:1.5. The blood was centrifuged in leucosep tubes containing Ficoll® Paque plus (Oxford Immunotec, Abingdon, Great Britian) at 1,000 × g for 10 min. The interphase containing the leukocytes was collected and subsequently washed twice with RPMI 1640. The pellet was resuspended in AIM V® Medium (Thermo Fisher Scientific, Waltham, MA, USA), counted and cultivated in 96-well plates for 4 h (1 × 10^5/100 μl). Then cells were stimulated with the indicated compounds in the presence or absence of BPI. The supernatants were collected after 18 h for determination of cytokine concentration by ELISA according to the manufacturer's instructions (OptEIA^TM Human TNFα ELISA Set and OptEIA^TM Human IL6 ELISA, BD Biosciences, Heidelberg, Germany; DuoSet® ELISA human CXCL8/IL-8, R&D, Minneapolis, MN, USA).

B1: rBPI: recombinant human BPI (aa 32-487) with C-terminal FLAG Tag expressed in HEK293T cells (protein)
chain: VNPGVVVRISQKGLDYASQQGTAALQKELKRIKIPDYSDSFKIKHLGKGHYSFYSMDIREFQLPSSQISMVPNVGLKFSISNANIKISGKWKAQKRFLKMSGNFDLSIEGMSISADLKLGSNPTSGKPTITCSSCSSHINSVHVHISKSKVGWLIQLFHKKIESALRNKMNSQVCEKVTNSVSSELQPYFQTLPVMTKIDSVAGINYGLVAPPATTAETLDVQMKGEFYSENHHNPPPFAPPVMEFPAAHDRMVYLGLSDYFFNTAGLVYQEAGVLKMTLRDDMIPKESKFRLTTKFFGTFLPEVAKKFPNMKIQIHVSASTPPHLSVQPTGLTFYPAVDVQAFAVLPNSSLASLFLIGMHTTGSMEVSAESNRLVGELKLDRLLLELKHSNIGPFPVELLQDIMNYIVPILVLPRVNEKLQKGFPLPTPARVQLYNVVLQPHQNFLLFGADVVYK
modifications: labelled with NT647 (NHS labelling kit) in the MST experiments only; left off: HA signal peptide, N-terminal, state not stated | FLAG, C-terminal, state not stated
notes: recombinant human BPI (aa 32-487) with C-terminal FLAG Tag expressed in HEK293T cells
**Q.** For B1, which “enhancement of immune stimulation of bLPs (IL-8)” value [1] is on record?
**A.** Its value is “not sufficient to enhance”.

**Q.** And the TNFα secretion ([2]; PBMCs stimulated with (R)-FSL-1, increasing rBPI concentration)?
**A.** The TNFα secretion was “gradually enhanced”.

**Q.** What about the TNFα secretion ([2]; PBMCs stimulated with (R)-Pam3CSK4, increasing rBPI concentration) of the same molecule?
**A.** Its TNFα secretion is “gradually enhanced”.

**Q.** And the “TNFα, IL-6, and IL-8 secretion” value ([2]; PBMCs stimulated with lysate of S. pneumoniae D39Δcps, seven donors, BPI 500 nM)?
**A.** Its value is “remarkable increase”.

**Q.** What about the “TNFα, IL-6, and IL-8 secretion” value ([2]; PBMCs stimulated with lysates of S. aureus 113, BPI 500 nM) of the same molecule?
**A.** The value was “also increased”.

**Q.** What about the “secretion of TNFα” value ([2]; PBMCs, BPI incubated with LTA SPΔlgt compared to LTA SPΔlgt alone) of the same molecule?
**A.** The value was “increased secretion of TNFα”.
